Measurements published in paper PMC10703350, “Fibril structures of TFG protein mutants validate the identification of TFG as a disease-related amyloid protein by the IMPAcT method” (PNAS Nexus, 2023).

Biological target: the molecule itself
Test: cryo-EM structure; amyloid fibrils of the purified construct (formed at 50 μM in PBS, 37°C, shaking); helical reconstruction in RELION, de novo model of the fibril core

Row | Protein | binding result
1 | TFG low-complexity domain (residues 237-327) with the G269V mutation conjugated to mCherry (domain or fragment, human, UniProt Q92734 237-327, looked up, TRK-fused gene protein (TFG), human, low-complexity domain residues 237-327 with the disease-related (CMT2) mutation G269V; PDB 8TEQ holds only the ordered fibril core (262-290 and 265-290); also called mC-TFG-LCD-G269V; G269V mutant; source: E. coli BL21(DE3) gold, purified (Ni-NTA, size exclusion chromatography), dialyzed into PBS; not shown: mCherry, N-terminal, kept) GQIEGQMYQQYQQQAGYGAQQPQAPPQQPQQYVIQYSASYSQQTGPQQPQQFQGYGQQPTSQAPAPAFSGQPQQLPAQPPQQYQASNYPAQ | binds
2 | TFG low-complexity domain (residues 237-327) with the P285L mutation conjugated to mCherry (domain or fragment, human, UniProt Q92734 237-327, looked up, TRK-fused gene protein (TFG), human, low-complexity domain residues 237-327 with the disease-related (HMSN-P) mutation P285L; PDB 8TER holds only the ordered fibril core (265-299); also called mC-TFG-LCD-P285L; P285L mutant; source: E. coli BL21(DE3) gold, purified (Ni-NTA, size exclusion chromatography), dialyzed into PBS; not shown: mCherry, N-terminal, kept) GQIEGQMYQQYQQQAGYGAQQPQAPPQQPQQYGIQYSASYSQQTGPQQLQQFQGYGQQPTSQAPAPAFSGQPQQLPAQPPQQYQASNYPAQ | binds
